Results as given in US9988429B2, “Glucagon analogues” (Zealand Pharma A/S, priority 2013, dated 2018).
Starred links: 1 amine or outer side, 2 acyl side, 3 side chain; linkers in the order of their positions; H or OH if unused. Non-standard residues stand in square brackets, D forms with d. Groups on a side chain read outwards from the residue. *: point of attachment. γGlu = O=C(O)[C@H](CCC(=O)[*:2])N[*:1]; Palmitoyl = CCCCCCCCCCCCCCCC(=O)*; Ac4c = NC1(C(=O)O)CCC1; Ac3c = NC1(C(=O)O)CC1

T1: endogenous GLP-1 receptor of a murine insulinoma cell line (murine, UniProt O35659 22-463)
T1 sequence (looked up): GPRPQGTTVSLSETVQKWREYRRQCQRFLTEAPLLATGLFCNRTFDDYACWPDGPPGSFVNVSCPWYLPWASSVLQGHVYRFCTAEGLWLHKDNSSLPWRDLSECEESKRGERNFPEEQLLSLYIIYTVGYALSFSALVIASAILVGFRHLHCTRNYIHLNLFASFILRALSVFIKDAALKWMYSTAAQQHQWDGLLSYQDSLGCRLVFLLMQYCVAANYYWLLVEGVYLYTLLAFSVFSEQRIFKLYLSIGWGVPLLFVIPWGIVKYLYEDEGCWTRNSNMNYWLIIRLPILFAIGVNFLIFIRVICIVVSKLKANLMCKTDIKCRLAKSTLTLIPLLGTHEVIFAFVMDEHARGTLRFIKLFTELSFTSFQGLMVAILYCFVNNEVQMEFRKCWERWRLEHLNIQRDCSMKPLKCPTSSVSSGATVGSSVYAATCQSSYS

B1: Compound 15: H-H-Ac4c-HGTFTSDYSKYLDE-K(Hexadecanoyl-isoGlu)-AAKDFIEWLESA-NH2 (peptide)
peptide: H-H[Ac4c]HGTFTSDYSKYLDEK([γGlu-Palmitoyl])AAKDFIEWLESA-NH2
B2: Compound 6: H-HAHGTFTSDYSKYLDS-K(Hexadecanoyl-isoGlu)-AAHDFVEWLLSA-NH2 (peptide)
peptide: H-HAHGTFTSDYSKYLDSK([γGlu-Palmitoyl])AAHDFVEWLLSA-NH2
SMILES: CCCCCCCCCCCCCCCC(=O)N[C@@H](CCC(=O)NCCCC[C@H](NC(=O)[C@H](CO)NC(=O)[C@H](CC(=O)O)NC(=O)[C@H](CC(C)C)NC(=O)[C@H](Cc1ccc(O)cc1)NC(=O)[C@H](CCCCN)NC(=O)[C@H](CO)NC(=O)[C@H](Cc1ccc(O)cc1)NC(=O)[C@H](CC(=O)O)NC(=O)[C@H](CO)NC(=O)[C@@H](NC(=O)[C@H](Cc1ccccc1)NC(=O)[C@@H](NC(=O)CNC(=O)[C@H](Cc1c[nH]cn1)NC(=O)[C@H](C)NC(=O)[C@@H](N)Cc1c[nH]cn1)[C@@H](C)O)[C@@H](C)O)C(=O)N[C@@H](C)C(=O)N[C@@H](C)C(=O)N[C@@H](Cc1c[nH]cn1)C(=O)N[C@@H](CC(=O)O)C(=O)N[C@@H](Cc1ccccc1)C(=O)N[C@H](C(=O)N[C@@H](CCC(=O)O)C(=O)N[C@@H](Cc1c[nH]c2ccccc12)C(=O)N[C@@H](CC(C)C)C(=O)N[C@@H](CC(C)C)C(=O)N[C@@H](CO)C(=O)N[C@@H](C)C(N)=O)C(C)C)C(=O)O
B3: Compound 5: H-HSHGTFTSDYSKYLDS-K(Hexadecanoyl-isoGlu)-AAHDFVEWLLSA-NH2 (peptide)
peptide: H-HSHGTFTSDYSKYLDSK([γGlu-Palmitoyl])AAHDFVEWLLSA-NH2
SMILES: CCCCCCCCCCCCCCCC(=O)N[C@@H](CCC(=O)NCCCC[C@H](NC(=O)[C@H](CO)NC(=O)[C@H](CC(=O)O)NC(=O)[C@H](CC(C)C)NC(=O)[C@H](Cc1ccc(O)cc1)NC(=O)[C@H](CCCCN)NC(=O)[C@H](CO)NC(=O)[C@H](Cc1ccc(O)cc1)NC(=O)[C@H](CC(=O)O)NC(=O)[C@H](CO)NC(=O)[C@@H](NC(=O)[C@H](Cc1ccccc1)NC(=O)[C@@H](NC(=O)CNC(=O)[C@H](Cc1c[nH]cn1)NC(=O)[C@H](CO)NC(=O)[C@@H](N)Cc1c[nH]cn1)[C@@H](C)O)[C@@H](C)O)C(=O)N[C@@H](C)C(=O)N[C@@H](C)C(=O)N[C@@H](Cc1c[nH]cn1)C(=O)N[C@@H](CC(=O)O)C(=O)N[C@@H](Cc1ccccc1)C(=O)N[C@H](C(=O)N[C@@H](CCC(=O)O)C(=O)N[C@@H](Cc1c[nH]c2ccccc12)C(=O)N[C@@H](CC(C)C)C(=O)N[C@@H](CC(C)C)C(=O)N[C@@H](CO)C(=O)N[C@@H](C)C(N)=O)C(C)C)C(=O)O
B4: Compound 11: H-HAQGTFTSDYSKYLDE-K(Hexadecanoyl-isoGlu)-AAKDFIEWLESA-NH2 (peptide)
peptide: H-HAQGTFTSDYSKYLDEK([γGlu-Palmitoyl])AAKDFIEWLESA-NH2
B5: Compound 12: H-H-DAla-QGTFTSDYSKYLDE-K(Hexadecanoyl-isoGlu)-AAKDFIEWLESA-NH2 (peptide)
peptide: HXQGTFTSDYSKYLDEKAAKDFIEWLESA
modifications: position 2 is DAla (D-alanine); Lys17 side chain conjugated to hexadecanoyl-isoGlu; C-terminal amide (NH2)
B6: Compound 3: H-H-Ac3c-QGTFTSDYSKYLDS-K(Hexadecanoyl-isoGlu)-AAHDFVEWLLSA-NH2 (peptide)
peptide: H-H[Ac3c]QGTFTSDYSKYLDSK([γGlu-Palmitoyl])AAHDFVEWLLSA-NH2
SMILES: CCCCCCCCCCCCCCCC(=O)N[C@@H](CCC(=O)NCCCC[C@H](NC(=O)[C@H](CO)NC(=O)[C@H](CC(=O)O)NC(=O)[C@H](CC(C)C)NC(=O)[C@H](Cc1ccc(O)cc1)NC(=O)[C@H](CCCCN)NC(=O)[C@H](CO)NC(=O)[C@H](Cc1ccc(O)cc1)NC(=O)[C@H](CC(=O)O)NC(=O)[C@H](CO)NC(=O)[C@@H](NC(=O)[C@H](Cc1ccccc1)NC(=O)[C@@H](NC(=O)CNC(=O)[C@H](CCC(N)=O)NC(=O)C1(NC(=O)[C@@H](N)Cc2c[nH]cn2)CC1)[C@@H](C)O)[C@@H](C)O)C(=O)N[C@@H](C)C(=O)N[C@@H](C)C(=O)N[C@@H](Cc1c[nH]cn1)C(=O)N[C@@H](CC(=O)O)C(=O)N[C@@H](Cc1ccccc1)C(=O)N[C@H](C(=O)N[C@@H](CCC(=O)O)C(=O)N[C@@H](Cc1c[nH]c2ccccc12)C(=O)N[C@@H](CC(C)C)C(=O)N[C@@H](CC(C)C)C(=O)N[C@@H](CO)C(=O)N[C@@H](C)C(N)=O)C(C)C)C(=O)O
B7: Compound 1: H-HAQGTFTSDYSKYLDS-K(Hexadecanoyl-isoGlu)-AAHDFVEWLLSA-NH2 (peptide)
peptide: H-HAQGTFTSDYSKYLDSK([γGlu-Palmitoyl])AAHDFVEWLLSA-NH2

biological target: human glucagon receptor (Glucagon-R) (human, UniProt P47871 26-477); assay: cell-based or functional assay; conditions: not given
Sequence (P47871 26-477): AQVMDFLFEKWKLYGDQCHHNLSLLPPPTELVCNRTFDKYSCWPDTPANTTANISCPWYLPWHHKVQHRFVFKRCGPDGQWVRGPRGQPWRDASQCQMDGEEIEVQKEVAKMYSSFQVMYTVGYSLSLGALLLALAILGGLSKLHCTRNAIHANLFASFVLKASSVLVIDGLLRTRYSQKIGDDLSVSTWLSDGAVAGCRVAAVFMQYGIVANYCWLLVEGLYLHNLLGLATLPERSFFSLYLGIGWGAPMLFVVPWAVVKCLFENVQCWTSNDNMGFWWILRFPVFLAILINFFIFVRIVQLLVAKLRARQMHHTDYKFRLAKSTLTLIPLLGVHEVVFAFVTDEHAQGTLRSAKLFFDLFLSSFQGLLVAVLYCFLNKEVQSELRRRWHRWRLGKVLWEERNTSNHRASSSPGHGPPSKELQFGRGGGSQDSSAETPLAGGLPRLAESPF

EC50 hGCGR CHO-K1 [nM] (cAMP, AlphaScreen) | Molecule
0.1 nM | B1
0.83 nM | B2
0.12 nM | B3
0.69 nM | B4
1.27 nM | B5
0.62 nM | B6

biological target: human glucagon-like peptide 1 receptor (GLP-1R) (human, UniProt P43220 24-463); assay: cell-based or functional assay; conditions: not given

EC50 hGLP-1R CHO-K1 [nM] (cAMP, AlphaScreen) | Molecule
0.62 nM | B2
0.27 nM | B3
0.14 nM | B4
0.14 nM | B5
0.52 nM | B7

biological target: T1, endogenous GLP-1 receptor of a murine …; assay: cell-based or functional assay; conditions: not given

EC50 [nM] (cAMP in murine insulinoma cell line) | Molecule
0.4 nM | B2
0.35 nM | B3
0.12 nM | B7
0.27 nM | B6

biological target: endogenous glucagon receptor of primary rat hepatocytes (rat, UniProt P30082 27-485); assay: cell-based or functional assay; conditions: not given
Sequence (P30082 27-485): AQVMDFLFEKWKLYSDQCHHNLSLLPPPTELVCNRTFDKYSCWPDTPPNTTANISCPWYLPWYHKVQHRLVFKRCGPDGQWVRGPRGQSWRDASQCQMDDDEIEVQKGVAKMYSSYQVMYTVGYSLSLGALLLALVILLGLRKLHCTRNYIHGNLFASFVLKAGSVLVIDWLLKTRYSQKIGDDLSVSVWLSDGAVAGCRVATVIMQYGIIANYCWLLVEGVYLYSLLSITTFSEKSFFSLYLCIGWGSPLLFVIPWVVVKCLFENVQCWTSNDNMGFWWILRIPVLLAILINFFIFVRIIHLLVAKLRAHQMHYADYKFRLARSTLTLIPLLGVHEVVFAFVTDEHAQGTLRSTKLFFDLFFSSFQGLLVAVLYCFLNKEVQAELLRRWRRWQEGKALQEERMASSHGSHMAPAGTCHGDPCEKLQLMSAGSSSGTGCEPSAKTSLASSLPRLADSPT

EC50 [nM] (inhibition of glycogen synthesis rate in primary rat hepatocytes) | Molecule
0.05 nM | B1
0.87 nM | B2
0.75 nM | B3
3.27 nM | B6

biological target: T2, human glucagon-like peptide 1 receptor (GLP-1R) (Homo sapiens, UniProt P43220); assay: GLP-1 receptor efficacy assay (cAMP AlphaScreen, CHO cells); format: cell-based; conditions: EC50 [GLP-1R] / EC50 [Glucagon-R], human receptors in CHO-K1
T2 construct: expressed in transfected cells
Description: The mammalian expression vectors encoding the Glucagon-R or the GLP-1-R were transfected into Chinese hamster ovary (CHO) cells by the Attractene method. Stably expressing clones were obtained by Zeocin selection (250 μg/mL) upon limited dilution of cells resistant to the selection pressure. […] One Glucagon-R expressing clone and one GLP-1-R expressing clone were chosen for compound profiling.
CHO cells expressing the human Glucagon-R, or human GLP-1-R were seeded 24 hours prior to the assay at 30,000 cells per well in 96-well microtiter plates in culture in 100 μl growth medium. On the day of analysis, growth medium was removed and the cells were washed once with 200 μl of assay buffer (Krebs-Ringer-buffer—KRBH). The buffer was removed and the cells were incubated for 15 min at room temperature in 10 μl KRBH (KRBH+10 mM HEPES, 5 mM NaHCO3, 0.1% (V/V) BSA) with 0.1 mM IBMX in deionized water containing increasing concentrations of test peptides. The reaction was stopped by the addition of lysis buffer (0.1% w/v BSA, 5 mM HEPES, 0.3% v/v Tween-20). After cell lysis for 10 min at room temperature, lysates were transferred to 384-well plates and 10 μl of acceptor/donorbead mixture as contained in the AlphaScreen™ cAMP Functional Assay Kit was added. After one hour of incubation at room temperature in the dark, the cAMP content was determined applying the AlphaScreen™ cAMP Functional Assay Kit from Perkin-Elmer according to manufacturer instructions. […] The GLP-1/glucagon ratio is calculated as defined earlier.

T2 sequence (P43220 24-463): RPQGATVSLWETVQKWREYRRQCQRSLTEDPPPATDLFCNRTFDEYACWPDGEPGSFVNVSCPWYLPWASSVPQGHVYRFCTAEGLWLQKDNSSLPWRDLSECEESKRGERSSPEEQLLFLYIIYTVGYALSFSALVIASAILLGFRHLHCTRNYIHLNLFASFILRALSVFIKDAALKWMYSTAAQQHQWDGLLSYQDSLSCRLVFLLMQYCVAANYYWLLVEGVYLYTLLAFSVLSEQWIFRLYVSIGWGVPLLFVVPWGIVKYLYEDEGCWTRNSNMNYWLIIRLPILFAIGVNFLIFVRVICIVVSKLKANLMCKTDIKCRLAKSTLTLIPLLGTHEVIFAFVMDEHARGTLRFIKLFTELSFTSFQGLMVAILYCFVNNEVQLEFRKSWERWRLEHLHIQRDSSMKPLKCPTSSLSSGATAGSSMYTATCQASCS

Ratio GLP-1/Glucagon | Molecule
0.07 | CCCCCCCCCCCCCCCC(=O)N[C@@H](CCC(=O)NCCCC[C@H](NC(=O)[C@H](CCC(=O)O)NC(=O)[C@H](CC(=O)O)NC(=O)[C@H](CC(C)C)NC(=O)[C@H](Cc1ccc(O)cc1)NC(=O)[C@H](CCCCN)NC(=O)[C@H](CO)NC(=O)[C@H](Cc1ccc(O)cc1)NC(=O)[C@H](CC(=O)O)NC(=O)[C@H](CO)NC(=O)[C@@H](NC(=O)[C@H](Cc1ccccc1)NC(=O)[C@@H](NC(=O)CNC(=O)[C@H](CCC(N)=O)NC(=O)[C@@H]1CCCN1C(=O)[C@@H](N)Cc1c[nH]cn1)[C@@H](C)O)[C@@H](C)O)C(=O)N[C@@H](C)C(=O)N[C@@H](C)C(=O)N[C@@H](CCCCN)C(=O)N[C@@H](CC(=O)O)C(=O)N[C@@H](Cc1ccccc1)C(=O)N[C@H](C(=O)N[C@@H](CCC(=O)O)C(=O)N[C@@H](Cc1c[nH]c2ccccc12)C(=O)N[C@@H](CC(C)C)C(=O)N[C@@H](CCC(=O)O)C(=O)N[C@@H](CO)C(=O)N[C@@H](C)C(N)=O)[C@@H](C)CC)C(=O)O [Compound 13]
0.04 | CCCCCCCCCCCCCCCC(=O)N[C@@H](CCC(=O)NCCCC[C@H](NC(=O)[C@H](CCC(=O)O)NC(=O)[C@H](CC(=O)O)NC(=O)[C@H](CC(C)C)NC(=O)[C@H](Cc1ccc(O)cc1)NC(=O)[C@H](CCCCN)NC(=O)[C@H](CO)NC(=O)[C@H](Cc1ccc(O)cc1)NC(=O)[C@H](CC(=O)O)NC(=O)[C@H](CO)NC(=O)[C@@H](NC(=O)[C@H](Cc1ccccc1)NC(=O)[C@@H](NC(=O)CNC(=O)[C@H](CCC(N)=O)NC(=O)C1(NC(=O)[C@@H](N)Cc2c[nH]cn2)CCC1)[C@@H](C)O)[C@@H](C)O)C(=O)N[C@@H](C)C(=O)N[C@@H](C)C(=O)N[C@@H](CCCCN)C(=O)N[C@@H](CC(=O)O)C(=O)N[C@@H](Cc1ccccc1)C(=O)N[C@H](C(=O)N[C@@H](CCC(=O)O)C(=O)N[C@@H](Cc1c[nH]c2ccccc12)C(=O)N[C@@H](CC(C)C)C(=O)N[C@@H](CCC(=O)O)C(=O)N[C@@H](CO)C(=O)N[C@@H](C)C(N)=O)[C@@H](C)CC)C(=O)O [Compound 14]
